In FireProtDB (doi:10.1002/pro.5560060808):

Conditions: Aspergillus oryzae (strain ATCC 42149 / RIB 40), Thermal, DSC, reversible: yes, whole UniProt chain shown
[1] = pH 4.5, Acetic acid-Sodium acetate 0.1 M

B1: Guanyl-specific ribonuclease T1 wild type, P00651 (protein)
chain: MMYSKLLTLTTLLLPTALALPSLVERACDYTCGSNCYSSSDVSTAQAAGYQLHEDGETVGSNSYPHKYNNYEGFDFSVSSPYYEWPILSSGDVYSGGSPGADRVVFNENNQLAGVITHTGASGNNFVECT
- Tm (pH 3, glycine-HCl 0.1 M): 52.4 °C
- heat capacity change of unfolding (pH 3, glycine-HCl 0.1 M): 1.2 kcal/mol/K
- unfolding enthalpy (calorimetric) (pH 3, glycine-HCl 0.1 M): 99.3 kcal/mol
- Tm (pH 3.5, glycine-HCl 0.1 M): 54.7 °C
- heat capacity change of unfolding (pH 3.5, glycine-HCl 0.1 M): 1.44 kcal/mol/K
- unfolding enthalpy (calorimetric) (pH 3.5, glycine-HCl 0.1 M): 103 kcal/mol
- Tm [1]: 59.2 °C
- heat capacity change of unfolding [1]: 1.17 kcal/mol/K
- unfolding enthalpy (calorimetric) [1]: 109 kcal/mol
- Tm (pH 6, MES 0.1 M): 62.4 °C
- heat capacity change of unfolding (pH 6, MES 0.1 M): 1.39 kcal/mol/K
- unfolding enthalpy (calorimetric) (pH 6, MES 0.1 M): 112 kcal/mol
